In IntAct's records for PubMed 14527422:

B1: BTB/POZ domain-containing protein 3 (Schizosaccharomyces pombe (strain ATCC 38366 / 972)), Q10225 (parent)
chain: MASQDQNTGTTHVELQGGENSKKLFSKYDLWSKAMDEKKLSSSLFTVNDTQEFLELCEACRRGDLEVVKSLVENYNTPINQVDQFDYSPLVLASLCGHEPVVKFLLENGALCERDTFQGERCLYGALNDNIRRMLLSYDITKAIDESQPYASHITSLLSNSALHFTTDIVFAGQYGRVFAHKFYLAARSSYFKSKFSKLGPSEHEIEVKHFAKEFESILRYLYLDTNAVFTKQYNNALLSIGKKFQLNDFIALYEKDREQLHSRDWKKIQLAKTQNDLGEFLDYIISNYKVPIESLNQPSDQYSFHDAYLQSYTHRYPVHRAIMCRCEYFLDMLAGPFLESNQELPVLSLPFSSSVVEIVLKFLYTDKTDIAPELALDVVYVADMLSLDKDRSLKSLASIVITKQEEPIDSIYDILRTAWDTSTPRLEQYASEYMANHLEHLIDDPEFCELVKESADRILQRQETDTIELIDDIRYFLSKRFGIYHEDLCIDGVVDTLTPYESEYNQKMEMIDDLLDKLELQA
partner: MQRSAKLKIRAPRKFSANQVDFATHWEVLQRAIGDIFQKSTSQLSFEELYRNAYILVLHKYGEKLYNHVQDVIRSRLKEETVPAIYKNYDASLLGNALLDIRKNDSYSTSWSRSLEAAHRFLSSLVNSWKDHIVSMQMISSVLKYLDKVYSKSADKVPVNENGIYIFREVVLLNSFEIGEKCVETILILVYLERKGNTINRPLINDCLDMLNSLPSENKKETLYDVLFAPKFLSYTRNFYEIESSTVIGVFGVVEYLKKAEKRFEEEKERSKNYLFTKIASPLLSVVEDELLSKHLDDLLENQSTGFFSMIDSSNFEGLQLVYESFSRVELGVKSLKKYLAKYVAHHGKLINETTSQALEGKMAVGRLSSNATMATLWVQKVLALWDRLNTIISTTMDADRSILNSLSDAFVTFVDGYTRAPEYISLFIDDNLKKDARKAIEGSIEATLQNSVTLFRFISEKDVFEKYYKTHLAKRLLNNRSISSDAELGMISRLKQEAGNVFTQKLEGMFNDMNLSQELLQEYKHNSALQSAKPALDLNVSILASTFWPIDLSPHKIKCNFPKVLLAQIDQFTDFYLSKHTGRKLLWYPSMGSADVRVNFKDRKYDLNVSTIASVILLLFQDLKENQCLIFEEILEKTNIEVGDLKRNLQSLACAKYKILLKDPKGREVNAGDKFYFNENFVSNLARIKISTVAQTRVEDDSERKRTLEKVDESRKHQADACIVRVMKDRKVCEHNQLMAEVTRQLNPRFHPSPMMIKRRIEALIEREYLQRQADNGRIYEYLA
B2: Cullin-3 (Schizosaccharomyces pombe (strain ATCC 38366 / 972)), Q09760 (parent)
chain: B1 partner
partner: B1 chain

Variants of: B1
Settings: with cul3_schpo cul3, Q09760

| effect of a mutation on the interaction | Variant |
| --- | --- |
| disrupting interaction | MASQDQNTGTTHVELQGGENSKKLFSKYDLWSKAMDEKKLSSSLFTVNDTQEFLELCEACRRGDLEVVKSLVENYNTPINQVDQFDYSPLVLASLCGHEPVVKFLLENGALCERDTFQGERCLYGALNDNIRRMLLSYDITKAIDESQPYASHITSLLSNSALHFTTDIVFAGQYGRVFALKFYLAARSSYFKSKFSKLGPSEHEIEVKHFAKEFESILRYLYLDTNAVFTKQYNNALLSIGKKFQLNDFIALYEKDREQLHSRDWKKIQLAKTQNDLGEFLDYIISNYKVPIESLNQPSDQYSFHDAYLQSYTHRYPVHRAIMCRCEYFLDMLAGPFLESNQELPVLSLPFSSSVVEIVLKFLYTDKTDIAPELALDVVYVADMLSLDKDRSLKSLASIVITKQEEPIDSIYDILRTAWDTSTPRLEQYASEYMANHLEHLIDDPEFCELVKESADRILQRQETDTIELIDDIRYFLSKRFGIYHEDLCIDGVVDTLTPYESEYNQKMEMIDDLLDKLELQA [H181L] |
| disrupting interaction | MASQDQNTGTTHVELQGGENSKKLFSKYDLWSKAMDEKKLSSSLFTVNDTQEFLELCEACRRGDLEVVKSLVENYNTPINQVDQFDYSPLVLASLCGHEPVVKFLLENGALCERDTFQGERCLYGALNDNIRRMLLSYDITKAIDESQPYASHITSLLSNSALHFTTAIVFAGQYGRVFAHKFYLAARSSYFKSKFSKLGPSEHEIEVKHFAKEFESILRYLYLDTNAVFTKQYNNALLSIGKKFQLNDFIALYEKDREQLHSRDWKKIQLAKTQNDLGEFLDYIISNYKVPIESLNQPSDQYSFHDAYLQSYTHRYPVHRAIMCRCEYFLDMLAGPFLESNQELPVLSLPFSSSVVEIVLKFLYTDKTDIAPELALDVVYVADMLSLDKDRSLKSLASIVITKQEEPIDSIYDILRTAWDTSTPRLEQYASEYMANHLEHLIDDPEFCELVKESADRILQRQETDTIELIDDIRYFLSKRFGIYHEDLCIDGVVDTLTPYESEYNQKMEMIDDLLDKLELQA [D168A] |

Variants of: B2
Settings: with btb3_schpo btb3, Q10225

| effect of a mutation on the interaction | Variant |
| --- | --- |
| disrupting interaction | Y50G |
